Tested on: Escherichia coli TOP10
Test: shrunken log2 fold change of peptide-encoding DNA abundance (4.5 h post-induction vs induction); higher = less antimicrobial activity (less host growth inhibition)
Details: time post-induction: 4.5 h; library: site-saturation at positions 5, 18, 19, 20
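Note: peptides expressed intracellularly from a pBAD plasmid library in pooled LB shake-flask culture, induced with 0.3% L-arabinose, DNA abundance read by NGS, three biological replicates, DESeq2 with apeglm shrinkage.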

Sequence | shrunken log2 fold change
RRIRIRPPRLPRPRPRPKYAPRP | -0.118
RRIRIRPPRLPRPRPRPKYFPRP | -0.288
RRIRIRPPRLPRPRPRPKYRPRP | 0.0239
RRIRIRPPRLPRPRPRPLAIPRP | -1.11
RRIRIRPPRLPRPRPRPLATPRP | -0.0671
RRIRIRPPRLPRPRPRPLAYPRP | -0.132
RRIRIRPPRLPRPRPRPLCEPRP | -0.332
RRIRIRPPRLPRPRPRPLCMPRP | -0.964
RRIRIRPPRLPRPRPRPLDCPRP | -0.267
RRIRIRPPRLPRPRPRPLDYPRP | -0.504
RRIRIRPPRLPRPRPRPLFSPRP | -0.423
RRIRIRPPRLPRPRPRPLGQPRP | -0.00501
RRIRIRPPRLPRPRPRPLGTPRP | -0.356
RRIRIRPPRLPRPRPRPLHEPRP | -0.191
RRIRIRPPRLPRPRPRPLICPRP | -0.738
RRIRIRPPRLPRPRPRPLIVPRP | -0.622
RRIRIRPPRLPRPRPRPLKTPRP | 0.0161
RRIRIRPPRLPRPRPRPLKWPRP | -0.535
RRIRIRPPRLPRPRPRPLMKPRP | -0.232
RRIRIRPPRLPRPRPRPLMWPRP | -0.115
RRIRIRPPRLPRPRPRPLNEPRP | -0.497
RRIRIRPPRLPRPRPRPLPPPRP | 0.127
RRIRIRPPRLPRPRPRPLPTPRP | 0.0405
RRIRIRPPRLPRPRPRPLQTPRP | 0.0711
RRIRIRPPRLPRPRPRPLRNPRP | -0.0491

Sequence | shrunken log2 fold change
RRIRIRPPRLPRPRPRPLSLPRP | -0.868
RRIRIRPPRLPRPRPRPLSSPRP | -0.143
RRIRIRPPRLPRPRPRPLWPPRP | -0.0906
RRIRIRPPRLPRPRPRPLYEPRP | -0.649
RRIRIRPPRLPRPRPRPMAFPRP | -0.0587
RRIRIRPPRLPRPRPRPMAPPRP | -0.0415
RRIRIRPPRLPRPRPRPMCAPRP | -0.127
RRIRIRPPRLPRPRPRPMCKPRP | -0.262
RRIRIRPPRLPRPRPRPMDTPRP | 0.0627
RRIRIRPPRLPRPRPRPMDWPRP | 0.0118
RRIRIRPPRLPRPRPRPMEKPRP | -0.229
RRIRIRPPRLPRPRPRPMGMPRP | -0.253
RRIRIRPPRLPRPRPRPMGPPRP | 0.0284
RRIRIRPPRLPRPRPRPMHAPRP | 0.325
RRIRIRPPRLPRPRPRPMHNPRP | -0.332
RRIRIRPPRLPRPRPRPMHQPRP | -0.121
RRIRIRPPRLPRPRPRPMHTPRP | 0.0542
RRIRIRPPRLPRPRPRPMICPRP | -0.224
RRIRIRPPRLPRPRPRPMIEPRP | -0.0216
RRIRIRPPRLPRPRPRPMIHPRP | -0.363
RRIRIRPPRLPRPRPRPMIIPRP | -0.295
RRIRIRPPRLPRPRPRPMKPPRP | -0.00581
RRIRIRPPRLPRPRPRPMNKPRP | -0.627
RRIRIRPPRLPRPRPRPMPFPRP | 0.0123
RRIRIRPPRLPRPRPRPMQNPRP | 0.112

Sequence | shrunken log2 fold change
RRIRIRPPRLPRPRPRPMRSPRP | 0.000106
RRIRIRPPRLPRPRPRPMSNPRP | 0.115
RRIRIRPPRLPRPRPRPMWMPRP | -0.0849
RRIRIRPPRLPRPRPRPMWWPRP | 0.141
RRIRIRPPRLPRPRPRPMWYPRP | -0.554
RRIRIRPPRLPRPRPRPMYCPRP | -0.183
RRIRIRPPRLPRPRPRPMYTPRP | -0.244
RRIRIRPPRLPRPRPRPNARPRP | 0.0831
RRIRIRPPRLPRPRPRPNCCPRP | -0.0793
RRIRIRPPRLPRPRPRPNCKPRP | -0.658
RRIRIRPPRLPRPRPRPNDDPRP | -0.0364
RRIRIRPPRLPRPRPRPNDYPRP | -0.312
RRIRIRPPRLPRPRPRPNEAPRP | 0.135
RRIRIRPPRLPRPRPRPNEFPRP | -0.295
RRIRIRPPRLPRPRPRPNEIPRP | -0.191
RRIRIRPPRLPRPRPRPNFGPRP | -0.0272
RRIRIRPPRLPRPRPRPNFKPRP | -0.144
RRIRIRPPRLPRPRPRPNGTPRP | -0.201
RRIRIRPPRLPRPRPRPNHQPRP | -0.164
RRIRIRPPRLPRPRPRPNHVPRP | -0.278
RRIRIRPPRLPRPRPRPNKMPRP | -0.464
RRIRIRPPRLPRPRPRPNLKPRP | -0.484
RRIRIRPPRLPRPRPRPNLMPRP | -0.377
RRIRIRPPRLPRPRPRPNLNPRP | -0.237
RRIRIRPPRLPRPRPRPNMPPRP | -0.611
